This note sets out measurements from US20230346916A1 (NEW YORK BLOOD CENTER, published 2023).

The target in assay [1] is T1, SARS-CoV-2 RBD-Fc fusion protein (residues 331-524 of SARS-CoV-2 S protein with a C-terminal Fc of human IgG1) (SARS-CoV-2; human).
T1 construct: also called SARS-CoV-2 RBD protein; SARS-CoV-2 RBD-Fc protein
In words: ELISA, RBD-Fc coated at 1 µg/ml, sDPP4 serially diluted. For orientation: An ELISA detects its analyte on a solid surface through an enzyme-linked reagent.

The target of assay [2] is T1, SARS-CoV-2 RBD-Fc fusion protein …. In words: flow cytometry on hDPP4/293T cells. In general terms: In flow cytometry, cells or beads pass a laser one at a time.

B1: soluble human DPP4 (sDPP4) receptor (receptor)
chain: SRKTYTLTDYLKNTYRLKLYSLRWISDHEYLYKQENNILVFNAEYGNSSVFLENSTFDEFGHSINDYSISPDGQFILLEYNYVKQWRHSYTASYDIYDLNKRQLITEERIPNNTQWVTWSPVGHKLAYVWNNDIYVKIEPNLPSYRITWTGKEDIIYNGITDWVYEEEVFSAYSALWWSPNGTFLAYAQFNDTEVPLIEYSFYSDESLQYPKTVRVPYPKAGAVNPTVKFFVVNTDSLSSVTNATSIQITAPASMLIGDHYLCDVTWATQERISLQWLRRIQNYSVMDICDYDESSGRWNCLVARQHIEMSTTGWVGRFRPSEPHFTLDGNSFYKIISNEEGYRHICYFQIDKKDCTFITKGTWEVIGIEALTSDYLYYISNEYKGMPGGRNLYKIQLSDYTKVTCLSCELNPERCQYYSVSFSKEAKYYQLRCSGPGLPLYTLHSSVNDKGLRVLEDNSALDKMLQNVQMPSKKLDFIILNETKFWYQMILPPHFDKSKKYPLLLDVYAGPCSQKADTVFRLNWATYLASTENIIVASFDGRGSGYQGDKIMHAINRRLGTFEVEDQIEAARQFSKMGFVDNKRIAIWGWSYGGYVTSMVLGSGSGVFKCGIAVAPVSRWEYYDSVYTERYMGLPTPEDNLDHYRNSTVMSRAENFKQVEYLLIHGTADDNVHFQQSAQISKALVDVGVDFQAMWYTDEDHGIASSTAHQHIYTHMSHFIKQCFSLP
notes: also called hDPP4 in solution
On to B1, for which the binding result in assay [1] is “no binding”.

B2: human DPP4 (hDPP4) receptor expressed on 293T cells (receptor)
chain: MKTPWKVLLGLLGAAALVTIITVPVVLLNKGTDDATADSRKTYTLTDYLKNTYRLKLYSLRWISDHEYLYKQENNILVFNAEYGNSSVFLENSTFDEFGHSINDYSISPDGQFILLEYNYVKQWRHSYTASYDIYDLNKRQLITEERIPNNTQWVTWSPVGHKLAYVWNNDIYVKIEPNLPSYRITWTGKEDIIYNGITDWVYEEEVFSAYSALWWSPNGTFLAYAQFNDTEVPLIEYSFYSDESLQYPKTVRVPYPKAGAVNPTVKFFVVNTDSLSSVTNATSIQITAPASMLIGDHYLCDVTWATQERISLQWLRRIQNYSVMDICDYDESSGRWNCLVARQHIEMSTTGWVGRFRPSEPHFTLDGNSFYKIISNEEGYRHICYFQIDKKDCTFITKGTWEVIGIEALTSDYLYYISNEYKGMPGGRNLYKIQLSDYTKVTCLSCELNPERCQYYSVSFSKEAKYYQLRCSGPGLPLYTLHSSVNDKGLRVLEDNSALDKMLQNVQMPSKKLDFIILNETKFWYQMILPPHFDKSKKYPLLLDVYAGPCSQKADTVFRLNWATYLASTENIIVASFDGRGSGYQGDKIMHAINRRLGTFEVEDQIEAARQFSKMGFVDNKRIAIWGWSYGGYVTSMVLGSGSGVFKCGIAVAPVSRWEYYDSVYTERYMGLPTPEDNLDHYRNSTVMSRAENFKQVEYLLIHGTADDNVHFQQSAQISKALVDVGVDFQAMWYTDEDHGIASSTAHQHIYTHMSHFIKQCFSLP
notes: whole, on cells
As for B2, in assay [2], the binding result is given as “no binding (tested: 20 µg/ml)”.
